From IntAct's records for PubMed 15070730

B1: WW domain-containing oxidoreductase (Homo sapiens), Q9NZC7 (parent)
chain: MAALRYAGLDDTDSEDELPPGWEERTTKDGWVYYANHTEEKTQWEHPKTGKRKRVAGDLPYGWEQETDENGQVFFVDHINKRTTYLDPRLAFTVDDNPTKPTTRQRYDGSTTAMEILQGRDFTGKVVVVTGANSGIGFETAKSFALHGAHVILACRNMARASEAVSRILEEWHKAKVEAMTLDLALLRSVQHFAEAFKAKNVPLHVLVCNAATFALPWSLTKDGLETTFQVNHLGHFYLVQLLQDVLCRSAPARVIVVSSESHRFTDINDSLGKLDFSRLSPTKNDYWAMLAYNRSKLCNILFSNELHRRLSPRGVTSNAVHPGNMMYSNIHRSWWVYTLLFTLARPFTKSMQQGAATTVYCAAVPELEGLGGMYFNNCCRCMPSPEAQSEETARTLWALSERLIQERLGSQSG
partner: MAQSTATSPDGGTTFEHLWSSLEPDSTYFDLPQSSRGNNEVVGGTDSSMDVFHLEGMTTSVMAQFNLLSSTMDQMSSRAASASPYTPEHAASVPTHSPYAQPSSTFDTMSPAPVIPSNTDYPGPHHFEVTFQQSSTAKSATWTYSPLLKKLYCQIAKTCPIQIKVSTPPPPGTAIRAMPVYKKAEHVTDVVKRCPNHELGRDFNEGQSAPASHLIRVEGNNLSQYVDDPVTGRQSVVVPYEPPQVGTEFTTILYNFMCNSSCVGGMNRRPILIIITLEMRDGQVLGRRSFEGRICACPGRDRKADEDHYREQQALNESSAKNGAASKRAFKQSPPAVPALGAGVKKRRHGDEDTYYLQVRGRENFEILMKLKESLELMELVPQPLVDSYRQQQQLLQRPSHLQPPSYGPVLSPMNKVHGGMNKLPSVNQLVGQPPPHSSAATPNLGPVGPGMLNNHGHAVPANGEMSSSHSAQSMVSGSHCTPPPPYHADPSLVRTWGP
B2: Tumor protein p73 (Homo sapiens), O15350-2 (parent)
chain: B1 partner
partner: B1 chain

Variants of: B1
Conditions: with TP73, O15350-2

Variant	effect of a mutation on the interaction
MAALRYAGLDDTDSEDELPPGWEERTTKDGWVRYANHTEEKTQWEHPKTGKRKRVAGDLPYGWEQETDENGQVFFVDHINKRTTYLDPRLAFTVDDNPTKPTTRQRYDGSTTAMEILQGRDFTGKVVVVTGANSGIGFETAKSFALHGAHVILACRNMARASEAVSRILEEWHKAKVEAMTLDLALLRSVQHFAEAFKAKNVPLHVLVCNAATFALPWSLTKDGLETTFQVNHLGHFYLVQLLQDVLCRSAPARVIVVSSESHRFTDINDSLGKLDFSRLSPTKNDYWAMLAYNRSKLCNILFSNELHRRLSPRGVTSNAVHPGNMMYSNIHRSWWVYTLLFTLARPFTKSMQQGAATTVYCAAVPELEGLGGMYFNNCCRCMPSPEAQSEETARTLWALSERLIQERLGSQSG [Y33R]	decreasing interaction strength
MAALRYAGLDDTDSEDELPPGWEERTTKDGWVFYANHTEEKTQWEHPKTGKRKRVAGDLPYGWEQETDENGQVFFVDHINKRTTYLDPRLAFTVDDNPTKPTTRQRYDGSTTAMEILQGRDFTGKVVVVTGANSGIGFETAKSFALHGAHVILACRNMARASEAVSRILEEWHKAKVEAMTLDLALLRSVQHFAEAFKAKNVPLHVLVCNAATFALPWSLTKDGLETTFQVNHLGHFYLVQLLQDVLCRSAPARVIVVSSESHRFTDINDSLGKLDFSRLSPTKNDYWAMLAYNRSKLCNILFSNELHRRLSPRGVTSNAVHPGNMMYSNIHRSWWVYTLLFTLARPFTKSMQQGAATTVYCAAVPELEGLGGMYFNNCCRCMPSPEAQSEETARTLWALSERLIQERLGSQSG [Y33F]	with no effect

Variants of: B1
Conditions: with TP73, O15350-2
Remark: another data set of the same source

Variant	effect of a mutation on the interaction
MAALRYAGLDDTDSEDELPPGWEERTTKDGWVRYANHTEEKTQWEHPKTGKRKRVAGDLPYGWEQETDENGQVFFVDHINKRTTYLDPRLAFTVDDNPTKPTTRQRYDGSTTAMEILQGRDFTGKVVVVTGANSGIGFETAKSFALHGAHVILACRNMARASEAVSRILEEWHKAKVEAMTLDLALLRSVQHFAEAFKAKNVPLHVLVCNAATFALPWSLTKDGLETTFQVNHLGHFYLVQLLQDVLCRSAPARVIVVSSESHRFTDINDSLGKLDFSRLSPTKNDYWAMLAYNRSKLCNILFSNELHRRLSPRGVTSNAVHPGNMMYSNIHRSWWVYTLLFTLARPFTKSMQQGAATTVYCAAVPELEGLGGMYFNNCCRCMPSPEAQSEETARTLWALSERLIQERLGSQSG [Y33R]	disrupting interaction strength
MAALRYAGLDDTDSEDELPPGWEERTTKDGWVYYANHTEEKTQWEHPKTGKRKRVAGDLPRGWEQETDENGQVFFVDHINKRTTYLDPRLAFTVDDNPTKPTTRQRYDGSTTAMEILQGRDFTGKVVVVTGANSGIGFETAKSFALHGAHVILACRNMARASEAVSRILEEWHKAKVEAMTLDLALLRSVQHFAEAFKAKNVPLHVLVCNAATFALPWSLTKDGLETTFQVNHLGHFYLVQLLQDVLCRSAPARVIVVSSESHRFTDINDSLGKLDFSRLSPTKNDYWAMLAYNRSKLCNILFSNELHRRLSPRGVTSNAVHPGNMMYSNIHRSWWVYTLLFTLARPFTKSMQQGAATTVYCAAVPELEGLGGMYFNNCCRCMPSPEAQSEETARTLWALSERLIQERLGSQSG [Y61R]	with no effect

Variants of: B2
Conditions: with wwox_human WWOX, Q9NZC7

Variant	effect of a mutation on the interaction
MAQSTATSPDGGTTFEHLWSSLEPDSTYFDLPQSSRGNNEVVGGTDSSMDVFHLEGMTTSVMAQFNLLSSTMDQMSSRAASASPYTPEHAASVPTHSPYAQPSSTFDTMSPAPVIPSNTDYPGPHHFEVTFQQSSTAKSATWTYSPLLKKLYCQIAKTCPIQIKVSTPPPPGTAIRAMPVYKKAEHVTDVVKRCPNHELGRDFNEGQSAPASHLIRVEGNNLSQYVDDPVTGRQSVVVPYEPPQVGTEFTTILYNFMCNSSCVGGMNRRPILIIITLEMRDGQVLGRRSFEGRICACPGRDRKADEDHYREQQALNESSAKNGAASKRAFKQSPPAVPALGAGVKKRRHGDEDTYYLQVRGRENFEILMKLKESLELMELVPQPLVDSYRQQQQLLQRPSHLQPPSYGPVLSPMNKVHGGMNKLPSVNQLVGQPPPHSSAATPNLGPVGPGMLNNHGHAVPANGEMSSSHSAQSMVSGSHCTPPPPAHADPSLVRTWGP [Y487A]	disrupting interaction strength
